Data on 8 molecules can be found in publication PMC12001206, “Characterization of multiple binding sites on microtubule associated protein 2c recognized by dimeric and monomeric 14‐3‐3ζ” (The Febs Journal, 2025).

“And” between values parts separate entries of the source, which are not always exact repeats. Identical values can stand only once. Like-named read-outs stand apart in the source and are kept apart here. Square brackets hold non-standard residues; d marks the D form. Ends that are not written are not given here. pS = N[C@@H](COP(=O)(O)O)C(=O)O

Sequences and labels used below:
T1: MAP2c fully phosphorylated by PKA (rat, UniProt P15146-3 1-467, almost complete phosphorylation at Ser184, Thr220, and Ser435)
T1 construct: microtubule-associated protein 2c (MAP2c), rat, 467 residues, UniProt A6KFC7; 15N,13C-labelled for the HNCO experiments; also called MP‐MAP2c; source: MAP2c expressed and purified as described earlier, incubated overnight with PKA at 27 °C, purified on HiTrap SP
T1 sequence (looked up): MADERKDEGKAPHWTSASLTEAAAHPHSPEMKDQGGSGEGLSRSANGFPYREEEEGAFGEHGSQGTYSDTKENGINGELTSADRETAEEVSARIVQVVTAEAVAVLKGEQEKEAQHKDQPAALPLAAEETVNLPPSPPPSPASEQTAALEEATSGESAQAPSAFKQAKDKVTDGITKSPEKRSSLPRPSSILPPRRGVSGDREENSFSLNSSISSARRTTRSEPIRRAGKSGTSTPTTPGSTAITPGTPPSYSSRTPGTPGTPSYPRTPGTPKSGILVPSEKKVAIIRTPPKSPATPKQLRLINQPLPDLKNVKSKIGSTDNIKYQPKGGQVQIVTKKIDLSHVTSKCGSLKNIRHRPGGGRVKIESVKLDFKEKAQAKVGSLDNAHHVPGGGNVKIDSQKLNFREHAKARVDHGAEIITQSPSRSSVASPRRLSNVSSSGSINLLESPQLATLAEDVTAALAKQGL

T2: MAP2c phosphorylated selectively by PKA at Ser435 (rat, UniProt P15146-3 1-467, phosphoserine at 435)
T2 construct: microtubule-associated protein 2c (MAP2c), rat, 467 residues, UniProt A6KFC7; 15N,13C-labelled for the HNCO experiments; also called SP‐MAP2c; source: MAP2c expressed and purified as described earlier, incubated with PKA for 1 h at 27 °C, purified on HiTrap SP
T2 sequence (looked up): T1 sequence (looked up)

T3: unphosphorylated MAP2c (microtubule associated protein 2c) (rat, UniProt P15146-3 1-467)
T3 construct: microtubule-associated protein 2c (MAP2c), rat, 467 residues, UniProt A6KFC7; 15N,13C-labelled (M9 medium) for the HNCO experiments; also called UP‐MAP2c
T3 sequence (looked up): T1 sequence (looked up)

T4: monomeric 14‐3‐3ζ‐L12E/M78K/C25A/C189A, P63104
T4 chain: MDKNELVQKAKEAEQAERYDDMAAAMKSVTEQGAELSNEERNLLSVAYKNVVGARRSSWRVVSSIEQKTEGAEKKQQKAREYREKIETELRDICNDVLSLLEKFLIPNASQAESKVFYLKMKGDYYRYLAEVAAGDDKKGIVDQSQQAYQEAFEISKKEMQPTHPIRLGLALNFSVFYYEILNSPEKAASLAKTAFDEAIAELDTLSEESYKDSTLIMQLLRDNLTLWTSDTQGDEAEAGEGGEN

B1: unphosphorylated MAP2c fragment 300–467 (MTBD and CTD) (domain or fragment, rat, UniProt P15146-3 300-467, looked up)
chain: LRLINQPLPDLKNVKSKIGSTDNIKYQPKGGQVQIVTKKIDLSHVTSKCGSLKNIRHRPGGGRVKIESVKLDFKEKAQAKVGSLDNAHHVPGGGNVKIDSQKLNFREHAKARVDHGAEIITQSPSRSSVASPRRLSNVSSSGSINLLESPQLATLAEDVTAALAKQGL
notes: MAP2c, rat, UniProt A6KFC7, residues 300-467, covering MTBD and CTD; also called UP‐(300–467); source: cloned into pET28a (NcoI, BamHI); expressed and purified by the same protocol as MAP2c
B2: MAP2c fragment 300–467 phosphorylated by PKA on Ser435 (domain or fragment, rat, UniProt P15146-3 300-467, looked up)
chain: B1 chain
modifications: phosphoserine at 435
notes: MAP2c, rat, UniProt A6KFC7, residues 300-467, covering MTBD and CTD; also called SP‐(300–467); source: cloned into pET28a; expressed and purified by the same protocol as MAP2c; incubated overnight with PKA at 27 °C
B3: dimeric pseudo wild‐type 14‐3‐3ζ (14‐3‐3ζ C25A/C189A) (natural protein)
chain: SVDMDKNELVQKAKLAEQAERYDDMAAAMKSVTEQGAELSNEERNLLSVAYKNVVGARRSSWRVVSSIEQKTEGAEKKQQMAREYREKIETELRDICNDVLSLLEKFLIPNASQAESKVFYLKMKGDYYRYLAEVAAGDDKKGIVDQSQQAYQEAFEISKKEMQPTHPIRLGLALNFSVFYYEILNSPEKAASLAKTAFDEAIAELDTLSEESYKDSTLIMQLLRDNLTLWTSDTQGDEAEAGEGGEN
notes: additional residues at the N-terminus; 14-3-3ζ, residues 1-245, UniProt P63104; C25A and C189A count on P63104; The results speak of '230 residues examined' in the crystals, the methods of residues 1-245 plus SVD; also called d14‐3‐3ζ; dimeric 14‐3‐3ζ
B4: monomeric 14‐3‐3ζ‐L12E/M78K/C25A/C189A, P63104 1-245 (natural protein)
chain: T4 chain
B5: peptide corresponding to residues 333–362 of MAP2c (peptide)
peptide: QIVTKKIDLSHVTSKCGSLKNIRHRPGGGR
notes: source: synthetic peptide, ordered from Clonestar
B6: MAP2c microtubule binding domain fragment, residues 300–399 (domain or fragment, rat, UniProt P15146-3 300-399, looked up)
chain: LRLINQPLPDLKNVKSKIGSTDNIKYQPKGGQVQIVTKKIDLSHVTSKCGSLKNIRHRPGGGRVKIESVKLDFKEKAQAKVGSLDNAHHVPGGGNVKIDS
notes: MAP2c, rat, UniProt A6KFC7, residues 300-399, containing the MTBD; also called UP‐(300–399); MTBD; source: cloned into pET28a (NcoI, BamHI); expressed in M9 medium (15N,13C) and purified by the same protocol as MAP2c
B7: phosphopeptide corresponding to residues 432–439 of MAP2c (peptide)
peptide: RRL[pS]NVSS
notes: as for B5

Data set [1] addresses MAP2c phosphorylated selectively by PKA at Ser435 (rat) (UniProt P15146). Briefly: NMR titration; 31P 1D NMR; 60 μM SP-MAP2c or MP-MAP2c with 12.5-300 μM d14-3-3ζ or 12.5-200 μM m14-3-3ζ; chemical shift changes fitted; apparent KD.
Data set [2] has the same target. The data set is described as follows: ITC; 14-3-3ζ (d: 2.9-3 mM; m: 1.5 mM) injected into the cell with 90 μM MAP2c or 220 μM fragment 300-467; 27 °C; 50 mM MOPS, 100 mM NaCl, 4 mM β-mercaptoethanol; one set of sites; apparent KD. (In general: Isothermal titration calorimetry measures the heat released or taken up as one component is titrated into another.)
The target in data set [3] is unphosphorylated MAP2c (microtubule associated protein 2c) (rat) (UniProt P15146). Briefly: cross-linking; DSBU (200 μM) cross-linking, SDS/PAGE and LC-MS/MS; 20 μM UP-/MP-MAP2c with 80 μM d14-3-3ζ or m14-3-3ζ, or 80 μM d14-3-3ζ with 100 or 400 μM UP-(333-362); PBS, 1 mM TCEP, 37 °C.
In data set [4] the target is T1, MAP2c fully phosphorylated by PKA. Described as above.
Data set [5] shares this target. The data set is described as follows: ITC; 14-3-3ζ (d: 2.9-3 mM; m: 1.5 mM) injected into the cell with 90 μM MAP2c or 220 μM fragment 300-467; 27 °C; 50 mM MOPS, 100 mM NaCl, 4 mM β-mercaptoethanol; one set of sites; apparent KD.
Data set [6] deals with B3. The data set is described as above. The settings on record: both partners purified.
Data set [7] addresses T2, MAP2c phosphorylated selectively by PKA …. Briefly: NMR titration; 31P 1D NMR; 60 μM SP-MAP2c or MP-MAP2c with 12.5-300 μM d14-3-3ζ or 12.5-200 μM m14-3-3ζ; chemical shift changes fitted; apparent KD. To be noted: both partners purified.
The target in data set [8] is T3, unphosphorylated MAP2c (microtubule …). Briefly: cross-linking; DSBU (200 μM) cross-linking, SDS/PAGE and LC-MS/MS; 20 μM UP-/MP-MAP2c with 80 μM d14-3-3ζ or m14-3-3ζ, or 80 μM d14-3-3ζ with 100 or 400 μM UP-(333-362); PBS, 1 mM TCEP, 37 °C. To be noted: both partners purified.
Data set [9] deals with the molecule itself. Described as above.
Data set [10] addresses T3, unphosphorylated MAP2c (microtubule …). Briefly: ITC; 14-3-3ζ (d: 2.9-3 mM; m: 1.5 mM) injected into the cell with 90 μM MAP2c or 220 μM fragment 300-467; 27 °C; 50 mM MOPS, 100 mM NaCl, 4 mM β-mercaptoethanol; one set of sites; apparent KD. To be noted: both partners purified.
Data set [11] has as its target T2, MAP2c phosphorylated selectively by PKA …. The description is as above. To be noted: both partners purified.
Data set [12] addresses T4, monomeric 14‐3‐3ζ‐L12E/M78K/C25A/C189A, …. The data set is described as follows: ITC; free m14-3-3ζ titrated into ITC buffer; heat of dissociation; dimer to monomers. To be noted: remark: other sources report otherwise.
Data set [13] shares this target. Briefly: native gel or EMSA; native PAGE; 100 μM d14-3-3ζ or m14-3-3ζ with 0-400 μM MP-MAP2c, 15 min at room temperature; 10% gel, 25 mM Tris, 192 mM glycine, 4 °C. The settings on record: remark: other sources report otherwise. Background: In EMSA bound probe runs differently from free probe, usually more slowly.
The target of data set [14] is B3. The data set is described as follows: ITC; 3 mM d14-3-3ζ injected into 160 μM SP-(432-439) or 150 μM UP-(333-362); 27 °C; 50 mM MOPS, 100 mM NaCl, 4 mM β-mercaptoethanol; n set to one in the fit. To be noted: both partners purified.
Data set [15] has as its target B3. The data set is described as follows: NMR titration; 3D HNCO peak broadening; 350 μM 15N,13C-UP-(300-399) with 350 μM d14-3-3ζ; 27 °C; NMR buffer. The settings on record: both partners purified.

As to “monomeric 14‐3‐3ζ‐L12E/M78K/C25A/C189A (from UniProt P63104 1-245) (natural protein)”, the Kd in data set [1] worked out at 133 µM; in [2], 102 µM; in data set [5], 17 µM. For the same molecule, the dH in [2] worked out at 2.49 kcal/mol; in data set [5] it was 0.765 kcal/mol. Further, the stoichiometry N stood at 1.51 in [2], 2 in [3], 2 in data set [4] and 1.31 in data set [5].

As to B1, the Kd in data set [6] was 56 ± 8 µM.

As to B2, the Kd in data set [6] is 24 ± 6 µM.

B3: the Kd in data set [7] is 7.3 µM and < 15 µM; in [10] it was 58 ± 6 µM; in data set [11], 74 ± 21 µM; in data set [5] (both partners purified), 21 ± 3 µM. Also, the “stoichiometry N” value was 2.73 ± 0.2 in data set [7]; 2 in [8]; 2 in [4] (both partners purified); 1.93 ± 0.03 in data set [10]; 2.68 ± 0.12 in data set [11]; 1.99 ± 0.04 in data set [5] (both partners purified). The binding result in data set [9] is reported as “binds”. Further, the dH in data set [10] was 2.72 ± 0.12 kcal/mol; in [11] it was 2.08 ± 0.239 kcal/mol; in data set [5] (both partners purified), 1.34 ± 0.0478 kcal/mol.

Regarding B4, the Kd in [12] worked out at 600 µM. Also, the percent present as a dimer at 100 μM in data set [13] amounted to 20%.

B5 displayed a Kd in data set [14] of 1800 ± 100 µM.

As for B6, the binding result in data set [15] is given as “binds”.

As to B7, the Kd in data set [14] worked out at 3200 ± 400 µM.

As usually defined, the stoichiometry N is a count of units in the complex or per binding partner.
